Paper PMC8341956

Target: nucleosome core particle (recombinant Xenopus laevis histone octamer on 147 bp 601 DNA) (Xenopus laevis)
Test: native gel or EMSA; HMGN1 variants incubated with AlexaFluor488-labelled nucleosome cores (50 nM) at 0.5:1, 1:1 and 2:1 HMGN1 per nucleosome; 10 mM Tris pH 7.5, 25 mM NaCl, 25 mM KCl, 0.2 mM DTT, 4% sucrose, on ice 20-30 min; 5% native PAGE, 0.5x TBE, 4 °C

Which stoichiometry N (HMGN1 molecules per nucleosome) does the source give for “full-length recombinant HMGN1 (HMGN1_1–99, unmodified) (natural protein)” here?
The stoichiometry N (HMGN1 molecules per nucleosome) was 2.

Which stoichiometry N (HMGN1 molecules per nucleosome) does the source give for “semi-synthetic unmodified HMGN1 (natural protein)” here?
The stoichiometry N (HMGN1 molecules per nucleosome) was 2.
